Laboratory results as given in publication PMC8139980, “Qki activates Srebp2-mediated cholesterol biosynthesis for maintenance of eye lens transparency”.

T1: Qki-5 full-length (UniProt Q9QYS9 1-341)
T1 sequence: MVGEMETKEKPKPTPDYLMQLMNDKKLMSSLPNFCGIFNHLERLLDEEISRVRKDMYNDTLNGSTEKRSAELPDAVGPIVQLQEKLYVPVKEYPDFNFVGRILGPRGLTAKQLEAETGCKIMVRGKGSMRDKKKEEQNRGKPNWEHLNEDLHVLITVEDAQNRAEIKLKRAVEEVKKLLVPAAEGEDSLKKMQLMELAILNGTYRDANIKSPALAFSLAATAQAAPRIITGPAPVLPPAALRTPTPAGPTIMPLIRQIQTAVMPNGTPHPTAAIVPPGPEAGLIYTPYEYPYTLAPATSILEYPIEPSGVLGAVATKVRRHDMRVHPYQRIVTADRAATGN

T2: Qki-5 STAR domain (UniProt Q9QYS9 7-214)
T2 sequence: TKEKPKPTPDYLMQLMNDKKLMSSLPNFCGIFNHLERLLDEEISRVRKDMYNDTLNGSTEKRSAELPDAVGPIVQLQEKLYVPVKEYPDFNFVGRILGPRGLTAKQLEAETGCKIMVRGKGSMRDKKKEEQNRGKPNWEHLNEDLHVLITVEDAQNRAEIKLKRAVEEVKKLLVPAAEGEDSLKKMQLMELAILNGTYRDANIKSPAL


Key:
Qki-5 full-length [1] = molecular target: T1, Qki-5 full-length; test: MST; MST: 20 nM Atto488-protein, PBS with Tween-20 (0.1% in 2x protein stock), 25 C; ITC: 50 mM Tris pH 7.5, 150 mM NaCl, 20 C; conditions: protein: recombinant; tags: N-terminal Trx-His6 (PreScission site); Atto488-NHS labeled for MST; chain copies: 2
Qki-5 STAR domain [2] = molecular target: T2, Qki-5 STAR domain; test: ITC; text says KH domain of Qki; assayed construct is STAR; MST: 20 nM Atto488-protein, PBS with Tween-20 (0.1% in 2x protein stock), 25 C; ITC: 50 mM Tris pH 7.5, 150 mM NaCl, 20 C; conditions: protein: recombinant; tags: N-terminal Trx-His6 (PreScission site); chain copies: 2
Qki-5 full-length [3] = molecular target: T1, Qki-5 full-length; test: ITC; Kd only in figure; MST: 20 nM Atto488-protein, PBS with Tween-20 (0.1% in 2x protein stock), 25 C; ITC: 50 mM Tris pH 7.5, 150 mM NaCl, 20 C; conditions: protein: recombinant; tags: N-terminal Trx-His6 (PreScission site); Atto488-NHS labeled for MST; chain copies: 2
Qki-5 STAR domain [4] = molecular target: T2, Qki-5 STAR domain; test: as above; conditions: protein: recombinant; tags: N-terminal Trx-His6 (PreScission site); chain copies: 2
Qki-5 full-length [5] = molecular target: T1, Qki-5 full-length; test: MST; Kd only in figure; MST: 20 nM Atto488-protein, PBS with Tween-20 (0.1% in 2x protein stock), 25 C; ITC: 50 mM Tris pH 7.5, 150 mM NaCl, 20 C; conditions: protein: recombinant; tags: N-terminal Trx-His6 (PreScission site); Atto488-NHS labeled for MST; chain copies: 2

Binder	Kd (Qki-5 full-length [1])	binding result (Qki-5 full-length [5])	also measured
CCAGTAACCAG (ssDNA) [QDE1]	2.01 µM	–	Kd (Qki-5 STAR domain [2]): 11.9 µM
UUCACUAACAA (ssRNA) [QRE2]	–	–	binding result (Qki-5 full-length [3]): binds; binding result (Qki-5 STAR domain [4]): binds
CCTGTAACTGG (ssDNA) [QDE3]	–	binds	–
CUUCUUAAUAUAACUGCCUUAAACUUUAAU (ssRNA) [QRE1]	–	binds	–
CAGATAACGCG (ssDNA) [QDE5]	–	binds	–
CTTACGCTAAG (ssDNA) [QDE2]	–	binds	–
CAGAGCGCGCG (ssDNA) [QDE5-m]	83 µM	–	–
GGGGTAAGGGG (ssDNA) [QDE4]	81 µM	–	–
